Source: patent US20080090770A1, “Modulation of Muc1 Mediated Signal Transduction” (priority 2003, published 2008)
Blank lines part the entries; values can stand above or below the compound they belong to.

What was measured:
[1] = tested on: HCT116 cells transfected with MUC1ΔSANL; assay: Visualization of viable cells after cisplatin in transfected HCT116 cells; format: cell-based, human; settings: 100 μM cisplatin, 24 and 48 hr
Method: Human HCT116 colon carcinoma cells (ATCC, Manassas, Va.) were cultured in Dulbecco's modified Eagle's medium/F12 with 10% heat-inactivated fetal bovine serum, 100 units/ml penicillin, […] streptomycin and 2 mM L-glutamine. HCT116 cells were transfected with pIRES-puro2, pIRESpuro2-MUC1 or pIRES-puro2-MUC1ΔSANL (MUC1 with the four carboxyl terminal amino acids […] deleted) as described (Li et al., 2001). Stable transfectants were selected in the presence of 0.4 mg/ml puromycin (Calbiochem-Novabiochem, San Diego, Calif.).
Cells were incubated with 100 μM cisplatin (CDDP; Sigma), for 24 and 48 hr.

HCT116/MUC1 cells = assay: Apoptosis assay (sub-G1 DNA content) after siRNA transfection and CDDP treatment; format: cell-based, human; settings: CDDP 100 μM
Method: (§1) Cell culture and transfection: Human colon cancer HCT116 cells and human non-small lung cancer A549 were grown in Dulbecco's modified Eagle's medium (DMEM) and RPMI1640 medium, respectively, in a humidified 5% CO2 atmosphere at 37° C. Media were supplemented with 10% fetal bovine serum (FBS), 100 units/ml of penicillin and 100 μg/ml of streptomycin. HCT116 cells were transfected with pIRES-puro2 or pIRES-puro2-MUC1 as described (Li et al., 2001(a)) and stable transfectants were selected in the presence of 0.4 μg/ml puromycin (Caliochem-Novabiochem).
(§2) A nonspecific scrambled control siRNA (SCRsiRNA) was also synthesized (targeted sequence: 5′-[…]-3′) (Dharmacon, Inc.). Cells were plated, grown in antibiotic-free medium overnight, and then transiently transfected with siRNAs (0.2-20 nM) using Oligofectamine reagent (Invitrogen Life Technology, Inc.) and Opti-MEM 1 reduced serum medium (Invitrogen Life Technology, Inc.) according to the manufacturer's instructions.
(§3) Apoptosis assay: At 48 hr after siRNA transfection, cells were treated with 0, 10 or 100 μM cisplatin (CDDP, Sigma) for 24 hr to induce apoptosis. Apoptotic cells were quantified by analysis of sub-G1 DNA content. Cells were harvested, washed, with PBS, fixed with 75% ethanol, and incubated in PBS containing 200 μg/ml RNase A (Qiagen) for 15 min at 37° C. […] DNA content was analyzed by flow cytometry (EPICS XL-MCL, Coulter Corp.).

HCT116/vector cells = assay: as above; format: cell-based, human; settings: CDDP 100 μM
Method: as §1, §2, §3

HtrA2 = target: T1, HtrA2 (Homo sapiens, UniProt O43464); assay: TransSignal PDZ Domain Array: binding of His-tagged MUC1/CD to immobilized PDZ domain, without or with 7-mer peptide
T1 construct: purchased Panomics Inc
T1 sequence (O43464 364-445 limits assumed): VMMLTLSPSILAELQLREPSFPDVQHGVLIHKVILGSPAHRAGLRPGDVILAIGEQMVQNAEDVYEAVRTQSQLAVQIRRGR
Method: (§4) The ability of the MUC1 cytoplasmic domain (CD) to interact with a panel of 28 human PDZ domain proteins was screened. A His-tagged MUC1/CD was produced to affect the screening. The CD of MUC1 was amplified by RT-PCR from cDNA derived from human breast cancer MCF7 cells. The MUC1/CD gene was cloned into a bacterial vector pEXP (Panomics Inc.) to generate a His-tagged fusion protein (pEXP/MUC1/CD). DH5α E. Coli cells were transformed with pEXP/MUC1/CD and incubated overnight in 1 ml of LB medium containing 100 μg/ml ampicillin (LB/AMP). Eighty μl of the overnight culture was transferred to a tube of 4 ml of LB/AMP and allowed to grow until an OD600 of approximately 0.5-0.8 was evident. IPTG was added to the culture at a final concentration of 0.5 mM to induce expression of the His-tagged MUC1/CD protein. After 4 hours, cells were harvested in 1× resuspension buffer (Panomics Inc.) and lysed by sonication. The lysate was centrifuged at 14000 rpm for 5 minutes at 4° C. The resulting supernatant (bacterial extract) was collected and stored at −80° C. until use.
(§5) The TransSignal PDZ Domain Array kit (Panomics Inc.) was used comprising membranes on which the following 28 human PDZ proteins had been immobilized: MINT-2 d1, Mint-3 d1, Mint-3 d2, Mint-1 d1, Mint1 d2, CSKP, Dlg d1, Dlg1 d3, Dlg2 d2, Dlg4 d3, DVL1, DVL3, DVLL, GIPC, HtrA2, LIMK2, MPP2, NEB1, OMP25, hCLIM1, PTPH1, ZO-2 d1, hPTP1E d1, hPTP1E d5, RGS12, RIL, ZO-1 d3 and ZO-2 d3.
(§6) Membranes were submerged in a small tray with 20 ml of x1 blocking buffer (Panomics Inc.), and shaken at room temperature for 1 hour. The blocking buffer was removed and membranes rinsed twice with x1 Wash Buffer (Panomics inc.) at room temperature. The bacterial extract was diluted to a final concentration of 0.1 mg/ml in 20 ml Resuspension Buffer (Panomics Inc.). The membrane was incubated with the dilute bacterial extract overnight at 4° C. with gentle shaking. After incubation, the membrane was washed three times with 40 ml 1× Wash Buffer at room temperature for 10 minutes each wash. The membrane was then incubated with 20 ml diluted Anti-Histidine HRP Conjugate (Panomics inc., 1:3000 dilution in 1× Wash Buffer) at room temperature for 1 hour. The membrane was then washed with 40 ml 1× Wash Buffer at room temperature for 10 minutes each wash. The membrane was then visualized using […] ECL (Amersham Biosciences) utilizing the Detection Buffers as supplied by Panomics.
(§7) His-tagged MUC1/CD (bacterial extract) was incubated in the absence or presence of a 20-fold molar excess of the 7-mer peptide AAASANL (SEQ ID NO: 133) with the appropriate membrane-immobilized PDZ domain, as described above in Example 4.

RIL = target: T2, RIL (Homo sapiens, UniProt P50479); assay: as above
T2 construct: purchased Panomics Inc
T2 sequence (P50479 1-84 limits assumed): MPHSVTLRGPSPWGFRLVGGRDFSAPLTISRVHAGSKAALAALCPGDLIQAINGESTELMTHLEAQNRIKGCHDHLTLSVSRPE
Method: as §4, §5, §6, §7

PTPH1 = target: T3, PTPH1 (Homo sapiens, UniProt P26045); assay: as above
T3 construct: purchased Panomics Inc
T3 sequence (P26045 510-582 limits assumed): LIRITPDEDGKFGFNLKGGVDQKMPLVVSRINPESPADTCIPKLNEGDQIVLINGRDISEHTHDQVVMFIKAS
Method: as §4, §5, §6, §7

Mint-2 d1 = target: T4, Mint-2 d1 (Homo sapiens, UniProt Q99767); assay: as above
T4 construct: Mint-2 d1(XIIL protein, PDZ domain #1); purchased Panomics Inc
T4 sequence (Q99767 568-654 limits assumed): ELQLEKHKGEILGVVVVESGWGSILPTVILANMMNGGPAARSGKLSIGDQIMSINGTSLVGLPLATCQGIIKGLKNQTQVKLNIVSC
Method: as §4, §5, §6, §7

Mint-1 d2 = target: T5, Mint-1 d2 (Homo sapiens, UniProt Q02410); assay: as above
T5 construct: Mint-1 d2 (XII protein, PDZ domain #2); purchased Panomics Inc
T5 sequence (Q02410 747-822 limits assumed): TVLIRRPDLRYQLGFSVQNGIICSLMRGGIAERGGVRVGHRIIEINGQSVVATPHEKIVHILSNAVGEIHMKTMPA
Method: as §4, §5, §6, §7

OMP25 = target: T6, OMP25 (Homo sapiens, UniProt P57105); assay: TransSignal PDZ Domain Array: binding of His-tagged MUC1/CD to immobilized PDZ domain; settings: bacterial extract 0.1 mg/ml, panel of 28 PDZ proteins
T6 construct: The TransSignal PDZ Domain Array kit (Panomics Inc.) was used; purchased Panomics Inc
T6 sequence (P57105 13-100 limits assumed): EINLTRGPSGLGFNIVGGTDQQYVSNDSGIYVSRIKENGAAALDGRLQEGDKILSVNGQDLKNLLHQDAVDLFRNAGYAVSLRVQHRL
Method: as §4, with “use. […]” for “use.”

[2] = bacterial extract 0.1 mg/ml, panel of 28 PDZ proteins

Compound: [NH2][Pt]([NH2])([Cl])[Cl] [CDDP, cisplatin]
Sensitivity to CDDP-induced cell death relative to cells transfected with full length MUC1 [1]: substantially increase in the sensitivity to CDDP-induced cell death
Sensitivity of cells to apoptosis induced by CDDP (HCT116/MUC1 cells): relatively resistant to apoptosis
Sensitivity of cells to apoptosis induced by CDDP (HCT116/vector cells): sensitive to apoptosis

Inhibition of binding of his-tagged MUC1/CD to PDZ domain (HtrA2; 20-fold molar excess of 7-mer): inhibited the binding
Inhibition of binding of his-tagged MUC1/CD to PDZ domain (RIL; 20-fold molar excess of 7-mer): inhibited the binding
Inhibition of binding of his-tagged MUC1/CD to PDZ domain (PTPH1; 20-fold molar excess of 7-mer): inhibited the binding
Inhibition of binding of his-tagged MUC1/CD to PDZ domain (Mint-2 d1; 20-fold molar excess of 7-mer): inhibited the binding
Inhibition of binding of his-tagged MUC1/CD to PDZ domain (Mint-1 d2; 20-fold molar excess of 7-mer): inhibited the binding
Compound: AAASANL [7-mer peptide]

Binding of his-tagged MUC1/CD to PDZ domain (HtrA2; [2]): Binding was observed
Binding of his-tagged MUC1/CD to PDZ domain (RIL; [2]): Binding was observed
Binding of his-tagged MUC1/CD to PDZ domain (PTPH1; [2]): Binding was observed
Binding of his-tagged MUC1/CD to PDZ domain (Mint-2 d1; [2]): Binding was observed
Binding of his-tagged MUC1/CD to PDZ domain (Mint-1 d2; [2]): Binding was observed
Binding of his-tagged MUC1/CD to PDZ domain (OMP25): Binding was observed
Compound: MUC1/CD: His-tagged fusion protein of the MUC1 cytoplasmic domain, used as bacterial extract
